Numbering of substitutions follows the chain as printed. Names may count otherwise. Like-named read-outs stand apart in the source and are kept apart here. Each block holds one binder with its values, some of them ahead of it.
Legend:
[1] = target: T1, human ILT3 expressed on cells (human, UniProt Q8NHJ6 22-448); assay: cELISA, CHO human ILT3 cells
T1 construct: whole, on cells; also called huILT3; LILRB4

[2] = target: T2, Human ILT3 (LILRB4) extracellular domain with C-terminal His Tag (human, UniProt Q8NHJ6 22-259); assay: SPR (Biacore), human ILT3-His
T2 construct: the claims count residues 1-238 as the extracellular domain; also called human ILT3-His; ILT3_H
Method: (§1) The binding kinetics and affinities of anti-human ILT3 clones for human or rhesus ILT3-His tagged recombinant protein were measured by surface plasmon resonance using a Biacore™ T200 system (GE Healthcare, Piscataway, NJ). HBS-EP+ buffer (BR-1006-69) was used as the running buffer. Anti-human Fc antibody (Human Fc Capture Kit, BR100839, GE Healthcare) was immobilized via amine coupling chemistry in all four flow cells on a Series S CM5 sensor chip (BR100530 or 29149603, GE Healthcare) following manufacturer instructions. Flow cell 1 was used as reference for background subtraction and was not used for capture. […] Following each injection cycle, all four flow cells were regenerated using 30 second injection of 3M MgCl₂ solution at a flow rate of 10 μL/minute. Reference subtracted sensorgrams were fit to a 1:1 Langmuir Binding Model in the Biacore™ T200 Evaluation Software (Version 2.0) to determine the association (ka) and dissociation (kd) rate constants and the equilibrium dissociation constant KD (=kd/ka).

[3] = target: T3, Rhesus monkey ILT3 expressed on CHO-K1 cells (rhesus monkey (Macaca mulatta)); assay: cELISA, CHO rhesus ILT3 cells
T3 construct: whole, on cells; also called rhILT3; CHO-rhesus ILT3

[4] = target: T4, rhesus ILT3-His tagged recombinant protein (rhesus monkey (Macaca mulatta)); assay: SPR (Biacore), rhesus ILT3-His
T4 construct: also called ILT3_MM; not shown: His tag
T4 chain: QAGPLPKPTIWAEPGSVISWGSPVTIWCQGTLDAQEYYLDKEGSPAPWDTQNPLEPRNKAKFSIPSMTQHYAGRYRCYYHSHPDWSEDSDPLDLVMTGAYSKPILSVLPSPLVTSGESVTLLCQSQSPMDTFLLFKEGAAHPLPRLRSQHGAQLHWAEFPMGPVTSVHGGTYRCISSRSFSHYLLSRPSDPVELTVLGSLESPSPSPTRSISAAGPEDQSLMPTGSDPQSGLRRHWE
Method: as §1

[5] = target: T2, Human ILT3 (LILRB4) extracellular …; assay: Biacore SPR, column huILT3 KD (nM)
[6] = target: T4, rhesus ILT3-His tagged recombinant …; assay: Biacore SPR, column rhILT3 KD (nM)
[7] = target: T1, human ILT3 expressed on cells; assay: cELISA, CHO human ILT3 cells; remark: listed apart in the source
Method: Mouse anti-human ILT3 antibodies were tested for binding to human ILT3, and cross-reactivity to Rhesus monkey ILT3, human ILT5, human ILT7, human ILT8, and human ILT11 expressing CHO-K1 cells using a cell-based ELISA format. CHO-K1 cells were plated in 96-well tissue-culture plates in 50 μL of DMEM/F12, 10% BCS and gentamycin (CHO-K1 media). Cells were plated at either 2×10⁴ cells/well two days prior to the assay or 4×10⁴ cells/well one day prior to the assay. Media was removed from the wells prior to adding the test samples. Purified antibody was serially-diluted in CHO-K1 media and added to the CHO-K1 plates. The samples were incubated at room temperature for 30-60 minutes and plates were washed three times with PBS/05% Tween-20 using the cell wash program on the Biotek EL405x Select CW plate washer. Binding was detected using an HRP-conjugated goat anti-mouse IgG (Southern Biotech cat #1031-05) secondary antibody added at a 1:2000 dilution in CHO-K1 media and incubated at room temperature for 30-60 minutes. Assay plates were washed as above and developed with TMB and stopped with TMB stop solution (KPL cat #50-85-06). The absorbance at 450 nm—620 nm was determined. Mouse IgG1 (MIgG1) served as a control.

[8] = target: T2, Human ILT3 (LILRB4) extracellular …; assay: SPR (Biacore), human ILT3-His; remark: listed apart in the source

B1: Chimeric anti-ILT3 52B8 mouse VH M64L/human IgG4 (S228P):mouse VL/human Kappa (antibody, V domains shown)
VH: EVQLVESGGDLVKPGGSLKLSCAASGFTFSNYGMSWVRQTPDRRLEWVATISGGGDYTNYPDSLRGRFTISRDNAKNTLYLQMSSLKSEDTAMYYCGRRLWFRSLYYAMDYWGQGTSVTVSS
VL: NIVLTQSPASLAVSLGQRATISCRASEKVDSFGNSFMHWYQQKPGQPPKLLIYLTSNLDSGVPARFSGSGSRTDFALTIDPVEADDAATYYCQQNNEDPYTFGGGTKLEIKR
notes: also called mAb 75
EC50 [1]: 0.086 µg/mL | Kd [2]: 0.41 nM | EC50 [3]: 0.137 µg/mL | Kd [4]: 9.3 nM

B2: Chimeric anti-ILT3 52B8 mouse VH M64V/human IgG4 (S228P):mouse VL/human Kappa (antibody, V domains shown)
VH: B1 VH with L64V
VL: B1 VL
notes: also called mAb 74
EC50 [1]: 0.075 µg/mL | Kd [2]: 0.44 nM | EC50 [3]: 0.096 µg/mL | Kd [4]: 9.2 nM

B4: Humanized anti-ILT3 mAb (52B8 VH2 M64L/VL2) IgG4 S228P/Kappa (antibody, V domains shown)
VH: EVQLVESGGGLVQPGGSLRLSCAASGFTFSNYGMSWVRQAPGKGLEWVATISGGGDYTNYPDSLRGRFTISRDNAKNSLYLQMNSLKAEDTAVYYCGRRLWFRSLYYAMDYWGQGTLVTVSS
VL: DIVLTQSPDSLAVSLGERATINCRASEKVDSFGNSFMHWYQQKPGQPPKLLIYLTSNLDSGVPDRFSGSGSGTDFTLTISSLQAEDVAVYYCQQNNEDPYTFGQGTKLEIKR
notes: also called mAb 22
EC50 [1]: 0.057 µg/mL | Kd [2]: 0.97 nM | EC50 [3]: 0.081 µg/mL | Kd [4]: 21 nM

B5: Humanized anti-ILT3 mAb (52B8 VH2 M64V/VL2) IgG4 S228P/Kappa (antibody, V domains shown)
VH: B4 VH with L64V
VL: B4 VL
notes: also called mAb 14
EC50 [1]: 0.077 µg/mL | Kd [2]: 1 nM | EC50 [3]: 0.126 µg/mL | Kd [4]: 22 nM

B7: Humanized anti-ILT3 mAb (52B8 VH1/VL2) IgG4 S228P/Kappa (antibody, V domains shown)
VH: B4 VH with L64M, K87R
VL: B4 VL
notes: also called mAb 2
EC50 [1]: 0.7 µg/mL | Kd [2]: 1.1 nM | EC50 [3]: 0.109 µg/mL | Kd [4]: 20 nM

B10: Humanized anti-ILT3 mAb ((52B8 VH1 M64V/VL7) L234A L235A D265S) IgG1/Kappa (antibody)
heavy: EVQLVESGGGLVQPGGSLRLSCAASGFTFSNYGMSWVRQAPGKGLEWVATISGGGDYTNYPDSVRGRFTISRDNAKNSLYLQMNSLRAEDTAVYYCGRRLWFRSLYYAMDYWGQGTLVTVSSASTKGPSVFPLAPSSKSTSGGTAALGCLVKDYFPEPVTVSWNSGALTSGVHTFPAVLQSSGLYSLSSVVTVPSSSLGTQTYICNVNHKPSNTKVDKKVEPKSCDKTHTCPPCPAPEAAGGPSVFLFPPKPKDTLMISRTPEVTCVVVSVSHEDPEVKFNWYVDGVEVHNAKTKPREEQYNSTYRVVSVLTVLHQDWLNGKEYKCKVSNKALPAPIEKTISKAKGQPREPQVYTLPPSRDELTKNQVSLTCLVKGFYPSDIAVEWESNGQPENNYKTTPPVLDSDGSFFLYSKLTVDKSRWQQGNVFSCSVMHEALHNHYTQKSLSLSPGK
light: DIQLTQSPSSLSASVGDRVTITCRASEKVDSFGNSFMHWYQQKPGKAPKLLIYLTSNLDSGVPSRFSGSGSRTDFTLTISSLQPEDFATYYCQQNNEDPYTFGQGTKLEIKRTVAAPSVFIFPPSDEQLKSGTASVVCLLNNFYPREAKVQWKVDNALQSGNSQESVTEQDSKDSTYSLSSTLTLSKADYEKHKVYACEVTHQGLSSPVTKSFNRGEC
notes: also called mAb 28
Kd [2]: 0.57 nM | Kd [4]: 5.6 nM | Kd [5]: 0.57 nM | Kd [6]: 5.56 nM

B11: Humanized anti-ILT3 mAb (52B8 VH1 M64V/VL5) IgG4 S228P/Kappa (antibody)
heavy: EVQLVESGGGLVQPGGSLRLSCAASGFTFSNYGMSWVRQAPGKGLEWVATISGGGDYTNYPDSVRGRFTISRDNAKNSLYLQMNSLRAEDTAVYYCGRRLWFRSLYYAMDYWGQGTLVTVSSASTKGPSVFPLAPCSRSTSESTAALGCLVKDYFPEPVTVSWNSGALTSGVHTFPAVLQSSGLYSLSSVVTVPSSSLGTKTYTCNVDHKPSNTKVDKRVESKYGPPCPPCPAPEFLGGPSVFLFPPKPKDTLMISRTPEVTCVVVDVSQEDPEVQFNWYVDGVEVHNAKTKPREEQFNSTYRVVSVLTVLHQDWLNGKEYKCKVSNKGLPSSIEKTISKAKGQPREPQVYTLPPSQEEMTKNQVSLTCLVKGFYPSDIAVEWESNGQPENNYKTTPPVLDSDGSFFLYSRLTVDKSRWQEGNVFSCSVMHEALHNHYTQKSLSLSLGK
light: B10 light with R72G
notes: also called mAb 30; humanized 52B8 VH1 M64V/VL5
Kd [2]: 0.6 nM | Kd [4]: 4.8 nM | Kd [5]: 0.6 nM | Kd [6]: 4.8 nM

B14: Humanized anti-ILT3 mAb ((52B8 VH1 M64V/VL8) L234A L235A D265S) IgG1/Kappa (antibody)
heavy: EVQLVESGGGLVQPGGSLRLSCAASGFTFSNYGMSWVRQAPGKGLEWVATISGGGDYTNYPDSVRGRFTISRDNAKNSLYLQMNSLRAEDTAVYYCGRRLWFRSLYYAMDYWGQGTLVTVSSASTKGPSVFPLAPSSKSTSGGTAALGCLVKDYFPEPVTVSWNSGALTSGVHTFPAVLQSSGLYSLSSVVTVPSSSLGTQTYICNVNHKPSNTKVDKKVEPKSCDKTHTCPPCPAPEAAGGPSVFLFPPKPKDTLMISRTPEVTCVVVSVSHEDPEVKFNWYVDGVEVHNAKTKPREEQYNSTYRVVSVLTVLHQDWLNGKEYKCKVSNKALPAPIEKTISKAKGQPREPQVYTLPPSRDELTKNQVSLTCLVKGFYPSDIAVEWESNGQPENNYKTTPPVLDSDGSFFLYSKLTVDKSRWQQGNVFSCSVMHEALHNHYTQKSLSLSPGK
light: B10 light with S64A
notes: also called mAb 29
Kd [2]: 0.56 nM | Kd [4]: 5.7 nM | Kd [5]: 0.56 nM | Kd [6]: 5.74 nM

B17: Humanized anti-ILT3 mAb ((52B8 VH1 M64V/VL6) L234A L235A D265S) IgG1/Kappa (antibody)
heavy: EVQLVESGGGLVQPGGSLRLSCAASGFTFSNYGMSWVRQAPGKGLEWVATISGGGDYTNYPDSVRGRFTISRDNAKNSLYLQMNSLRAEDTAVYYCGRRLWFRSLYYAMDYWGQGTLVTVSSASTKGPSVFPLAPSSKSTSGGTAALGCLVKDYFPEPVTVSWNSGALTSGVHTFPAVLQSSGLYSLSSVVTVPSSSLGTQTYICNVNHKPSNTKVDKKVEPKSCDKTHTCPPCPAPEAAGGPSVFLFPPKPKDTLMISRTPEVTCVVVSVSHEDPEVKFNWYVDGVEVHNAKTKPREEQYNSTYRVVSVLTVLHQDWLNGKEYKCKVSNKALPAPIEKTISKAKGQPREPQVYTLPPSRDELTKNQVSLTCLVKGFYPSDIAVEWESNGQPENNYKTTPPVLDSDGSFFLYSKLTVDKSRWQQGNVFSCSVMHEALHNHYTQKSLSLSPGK
light: B10 light with L4M
notes: also called mAb 27
Kd [2]: 0.92 nM | Kd [4]: 10 nM | Kd [5]: 0.92 nM | Kd [6]: 10.3 nM

B20: Mouse anti-ILT3 mAb 11D1 IgG2b/Kappa (antibody, V domains shown)
VH: QVQLQQSGAELMKPGASVKISCKATGYTFRTYWIEWVKQRPGHGLEWIGEILPGNGNTHFNENFKDKATFTADTSSNAAYMQLSSLTSEDSAVYYCVRRLGRGPFDFWGQGTTLTVSS
VL: DIQMTQSPSSLSVSLGGKVTITCKASQDINEYIGWYQRKPGKGPRLLIHYTSTLQSGIPSRFSGSGSGRDYSLSISNLEPEDIATYYCLQYANPLPTFGGGTKLEIK
notes: Mouse IgG2b/Kappa; also called p11D1; LB182.11D1.1A1
EC50 [7]: 0.0505 µg/mL | EC50 [1]: 50.5 µg/mL | Kd [8]: 14.1 nM

Continued by falling Kd [2], values first:

EC50 [1]: 0.1 µg/mL | Kd [2]: 1.1 nM | EC50 [3]: 0.118 µg/mL | Kd [4]: 21 nM
B6: Humanized anti-ILT3 mAb (52B8 VH2/VL2) IgG4 S228P/Kappa (antibody, V domains shown)
VH: B4 VH with L64M
VL: B4 VL
notes: also called mAb 6

EC50 [1]: 0.085 µg/mL | Kd [2]: 1.1 nM | EC50 [3]: 0.148 µg/mL | Kd [4]: 22 nM | Kd [5]: 0.72 nM | Kd [6]: 8.77 nM
B9: Humanized anti-ILT3 mAb (52B8 VH1 M64V/VL2) IgG4 S228P/Kappa (antibody)
heavy: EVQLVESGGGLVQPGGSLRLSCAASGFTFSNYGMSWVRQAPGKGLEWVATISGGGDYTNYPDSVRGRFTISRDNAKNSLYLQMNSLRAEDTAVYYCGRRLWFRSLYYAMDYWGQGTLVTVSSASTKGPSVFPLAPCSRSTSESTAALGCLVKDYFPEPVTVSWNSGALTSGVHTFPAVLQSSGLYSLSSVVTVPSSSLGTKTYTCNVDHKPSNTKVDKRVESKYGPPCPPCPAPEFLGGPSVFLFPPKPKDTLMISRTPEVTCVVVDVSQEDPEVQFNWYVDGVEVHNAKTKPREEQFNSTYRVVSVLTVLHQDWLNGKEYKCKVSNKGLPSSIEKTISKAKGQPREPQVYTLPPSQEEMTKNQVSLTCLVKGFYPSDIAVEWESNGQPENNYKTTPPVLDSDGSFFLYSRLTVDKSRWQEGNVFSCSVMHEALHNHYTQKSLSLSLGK
light: DIVLTQSPDSLAVSLGERATINCRASEKVDSFGNSFMHWYQQKPGQPPKLLIYLTSNLDSGVPDRFSGSGSGTDFTLTISSLQAEDVAVYYCQQNNEDPYTFGQGTKLEIKRTVAAPSVFIFPPSDEQLKSGTASVVCLLNNFYPREAKVQWKVDNALQSGNSQESVTEQDSKDSTYSLSSTLTLSKADYEKHKVYACEVTHQGLSSPVTKSFNRGEC
notes: also called mAb 10

EC50 [1]: 0.079 µg/mL | Kd [2]: 1 nM | EC50 [3]: 0.137 µg/mL | Kd [4]: 22 nM
B3: Humanized anti-ILT3 mAb (52B8 VH1 M64L/VL2) IgG4 S228P/Kappa (antibody, V domains shown)
VH: B4 VH with K87R
VL: B4 VL
notes: also called mAb 18

EC50 [1]: 0.079 µg/mL | Kd [2]: 0.88 nM | EC50 [3]: 0.112 µg/mL | Kd [4]: 27 nM
B8: Humanized anti-ILT3 mAb (52B8 VH2 M64L/VL1) IgG4 S228P/Kappa (antibody, V domains shown)
VH: B4 VH
VL: B4 VL with G72R
notes: also called mAb 21

Kd [2]: 0.88 nM | Kd [4]: 10 nM | Kd [5]: 0.88 nM | Kd [6]: 10.3 nM
B15: Humanized anti-ILT3 mAb (52B8 VH1 M64V/VL6) IgG4 S228P/Kappa (antibody)
heavy: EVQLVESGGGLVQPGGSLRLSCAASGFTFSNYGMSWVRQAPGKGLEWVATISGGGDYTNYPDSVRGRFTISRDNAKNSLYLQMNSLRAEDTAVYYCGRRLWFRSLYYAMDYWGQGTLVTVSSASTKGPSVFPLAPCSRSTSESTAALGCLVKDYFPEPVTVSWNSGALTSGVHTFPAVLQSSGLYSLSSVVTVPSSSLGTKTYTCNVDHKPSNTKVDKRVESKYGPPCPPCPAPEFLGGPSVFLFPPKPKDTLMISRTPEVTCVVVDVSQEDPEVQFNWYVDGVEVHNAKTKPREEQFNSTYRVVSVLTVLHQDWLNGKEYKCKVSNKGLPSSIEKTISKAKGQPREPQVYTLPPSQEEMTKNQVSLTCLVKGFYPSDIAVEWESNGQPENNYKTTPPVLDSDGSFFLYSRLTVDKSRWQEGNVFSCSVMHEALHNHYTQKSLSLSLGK
light: B10 light with L4M
notes: also called mAb 31

EC50 [1]: 0.088 µg/mL | Kd [2]: 0.77 nM | EC50 [3]: 0.12 µg/mL | Kd [4]: 15 nM
B16: Humanized anti-ILT3 mAb (52B8 VH1 M64V/VL5 N34Q) IgG4 S228P/Kappa (antibody, V domains shown)
VH: B4 VH with L64V, K87R
VL: DIQLTQSPSSLSASVGDRVTITCRASEKVDSFGQSFMHWYQQKPGKAPKLLIYLTSNLDSGVPSRFSGSGSGTDFTLTISSLQPEDFATYYCQQNNEDPYTFGQGTKLEIKR
notes: also called mAb 46; humanized 52B8

Kd [2]: 0.74 nM | Kd [4]: 8.7 nM | Kd [5]: 0.74 nM | Kd [6]: 8.66 nM
B19: Humanized anti-ILT3 mAb ((52B8 VH1 M64V/VL2) L234A L235A D265S) IgG1/Kappa (antibody)
heavy: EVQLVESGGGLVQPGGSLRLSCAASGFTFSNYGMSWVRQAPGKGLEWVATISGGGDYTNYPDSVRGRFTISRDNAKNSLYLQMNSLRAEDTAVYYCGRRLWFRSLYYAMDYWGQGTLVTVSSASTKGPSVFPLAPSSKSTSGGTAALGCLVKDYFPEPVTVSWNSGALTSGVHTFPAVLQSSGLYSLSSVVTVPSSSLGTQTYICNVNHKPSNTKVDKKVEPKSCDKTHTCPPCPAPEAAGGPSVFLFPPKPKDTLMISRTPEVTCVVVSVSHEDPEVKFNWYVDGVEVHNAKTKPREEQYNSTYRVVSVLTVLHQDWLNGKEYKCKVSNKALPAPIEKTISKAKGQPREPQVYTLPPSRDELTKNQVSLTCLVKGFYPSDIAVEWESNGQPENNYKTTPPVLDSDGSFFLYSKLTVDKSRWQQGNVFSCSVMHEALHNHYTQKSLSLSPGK
light: B9 light
notes: also called mAb 25

Kd [2]: 0.61 nM | Kd [4]: 4.9 nM | Kd [5]: 0.61 nM | Kd [6]: 4.9 nM
B18: Humanized anti-ILT3 mAb ((52B8 VH1 M64V/VL5) L234A L235A D265S) IgG1/Kappa (antibody)
heavy: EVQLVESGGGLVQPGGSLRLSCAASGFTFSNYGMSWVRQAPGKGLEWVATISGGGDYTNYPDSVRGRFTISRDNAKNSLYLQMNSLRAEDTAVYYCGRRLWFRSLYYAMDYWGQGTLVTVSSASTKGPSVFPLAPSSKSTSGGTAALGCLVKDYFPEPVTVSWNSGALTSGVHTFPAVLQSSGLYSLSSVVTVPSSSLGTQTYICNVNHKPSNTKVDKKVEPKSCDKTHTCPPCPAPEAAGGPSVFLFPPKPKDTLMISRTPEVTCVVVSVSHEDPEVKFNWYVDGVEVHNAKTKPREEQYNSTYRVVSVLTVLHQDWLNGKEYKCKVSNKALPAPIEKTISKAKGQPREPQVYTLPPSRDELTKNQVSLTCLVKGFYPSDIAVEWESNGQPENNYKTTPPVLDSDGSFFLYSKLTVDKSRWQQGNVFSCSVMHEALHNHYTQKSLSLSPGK
light: B10 light with R72G
notes: also called mAb 26

Kd [2]: 0.54 nM | Kd [4]: 5.6 nM | Kd [5]: 0.54 nM | Kd [6]: 5.59 nM
B13: Humanized anti-ILT3 mAb (52B8 VH1 M64V/VL8) IgG4 S228P/Kappa (antibody)
heavy: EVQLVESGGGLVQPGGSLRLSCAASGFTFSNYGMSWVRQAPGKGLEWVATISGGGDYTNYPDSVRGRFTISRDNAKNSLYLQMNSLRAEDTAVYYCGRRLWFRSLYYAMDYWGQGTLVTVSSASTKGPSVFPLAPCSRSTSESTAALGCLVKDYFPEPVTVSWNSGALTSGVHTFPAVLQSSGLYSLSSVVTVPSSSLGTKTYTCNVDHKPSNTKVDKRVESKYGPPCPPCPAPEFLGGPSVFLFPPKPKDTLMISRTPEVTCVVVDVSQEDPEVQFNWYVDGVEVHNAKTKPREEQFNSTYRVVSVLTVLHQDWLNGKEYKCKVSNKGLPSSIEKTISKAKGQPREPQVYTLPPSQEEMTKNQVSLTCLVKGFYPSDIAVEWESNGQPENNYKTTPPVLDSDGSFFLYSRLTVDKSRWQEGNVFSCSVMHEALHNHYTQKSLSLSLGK
light: B10 light with S64A
notes: also called mAb 33

Kd [2]: 0.53 nM | Kd [4]: 5.6 nM | Kd [5]: 0.53 nM | Kd [6]: 5.61 nM
B12: Humanized anti-ILT3 mAb (52B8 VH1 M64V/VL7) IgG4 S228P/Kappa (antibody)
heavy: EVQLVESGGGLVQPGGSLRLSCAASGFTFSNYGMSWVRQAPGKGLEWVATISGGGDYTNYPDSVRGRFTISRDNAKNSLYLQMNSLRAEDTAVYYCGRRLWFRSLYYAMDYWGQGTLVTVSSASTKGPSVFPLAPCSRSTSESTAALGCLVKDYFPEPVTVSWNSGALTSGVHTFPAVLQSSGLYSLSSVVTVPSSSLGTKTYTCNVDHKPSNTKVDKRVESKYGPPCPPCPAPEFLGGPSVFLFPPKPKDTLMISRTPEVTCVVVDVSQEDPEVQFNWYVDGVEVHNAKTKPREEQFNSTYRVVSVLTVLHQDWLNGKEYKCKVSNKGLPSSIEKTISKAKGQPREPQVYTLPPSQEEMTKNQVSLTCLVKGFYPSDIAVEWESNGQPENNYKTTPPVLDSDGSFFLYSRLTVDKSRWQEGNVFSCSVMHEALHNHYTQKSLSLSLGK
light: B10 light
notes: also called mAb 32
